Earlier results as cited in patent US7214519B2, “Screening method for identifying heme independent modulators of soluble guanylyl cyclase (sGC) activity using αβCys105 mutant sGC” (Board of Regents of the University of Texas System, priority 2003, dated 2007).
Where two headings read alike, the source gives them in different places.

Molecular target: T1, αβ^Phe105 sGC (Bos taurus, UniProt P16068+P19687, H105F)
T1 sequence (P16068 1-619 H105F): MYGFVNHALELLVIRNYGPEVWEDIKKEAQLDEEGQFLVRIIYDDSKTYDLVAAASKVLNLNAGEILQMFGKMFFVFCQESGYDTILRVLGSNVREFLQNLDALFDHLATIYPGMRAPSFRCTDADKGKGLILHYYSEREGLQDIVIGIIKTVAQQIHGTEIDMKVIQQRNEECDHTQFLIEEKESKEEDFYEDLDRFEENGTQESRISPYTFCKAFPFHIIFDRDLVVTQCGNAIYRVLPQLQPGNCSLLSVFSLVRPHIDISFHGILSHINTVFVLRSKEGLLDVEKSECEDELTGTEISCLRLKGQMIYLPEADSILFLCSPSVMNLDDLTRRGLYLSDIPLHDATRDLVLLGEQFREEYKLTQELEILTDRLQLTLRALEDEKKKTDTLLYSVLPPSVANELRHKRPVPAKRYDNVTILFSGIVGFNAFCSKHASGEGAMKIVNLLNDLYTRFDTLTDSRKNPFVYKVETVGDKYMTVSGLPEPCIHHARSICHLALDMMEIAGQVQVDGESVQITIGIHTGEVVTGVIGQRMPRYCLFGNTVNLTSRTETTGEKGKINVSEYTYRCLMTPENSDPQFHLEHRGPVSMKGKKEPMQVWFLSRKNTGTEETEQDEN
T1 sequence (P19687 1-691): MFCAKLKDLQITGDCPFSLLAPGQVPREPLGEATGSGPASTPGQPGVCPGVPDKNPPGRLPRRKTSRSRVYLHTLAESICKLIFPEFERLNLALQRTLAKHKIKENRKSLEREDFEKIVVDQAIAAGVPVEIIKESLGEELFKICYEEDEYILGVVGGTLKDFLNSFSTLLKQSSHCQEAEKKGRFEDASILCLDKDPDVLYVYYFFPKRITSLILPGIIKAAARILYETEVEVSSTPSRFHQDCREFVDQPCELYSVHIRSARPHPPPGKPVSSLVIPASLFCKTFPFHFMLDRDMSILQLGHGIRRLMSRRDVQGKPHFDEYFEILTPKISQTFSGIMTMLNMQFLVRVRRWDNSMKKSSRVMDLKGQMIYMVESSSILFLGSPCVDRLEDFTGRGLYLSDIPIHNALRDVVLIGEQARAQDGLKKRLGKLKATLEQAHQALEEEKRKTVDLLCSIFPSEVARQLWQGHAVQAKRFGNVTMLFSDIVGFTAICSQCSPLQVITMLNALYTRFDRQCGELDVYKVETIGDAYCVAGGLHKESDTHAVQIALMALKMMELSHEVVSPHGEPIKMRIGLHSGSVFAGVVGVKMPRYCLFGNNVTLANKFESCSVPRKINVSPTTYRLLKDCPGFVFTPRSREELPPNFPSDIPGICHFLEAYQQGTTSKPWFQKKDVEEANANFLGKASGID
Conditions: cited from earlier work; for Specific activity: with DTT

B1: αβ^Phe105: bovine sGC with βHis105→Phe substitution, from the literature (40) (protein, UniProt P19687 1-691; P16068 1-619, looked up, variant H105F)
Guanylate cyclase soluble … 1: MFCAKLKDLQITGDCPFSLLAPGQVPREPLGEATGSGPASTPGQPGVCPGVPDKNPPGRLPRRKTSRSRVYLHTLAESICKLIFPEFERLNLALQRTLAKHKIKENRKSLEREDFEKIVVDQAIAAGVPVEIIKESLGEELFKICYEEDEYILGVVGGTLKDFLNSFSTLLKQSSHCQEAEKKGRFEDASILCLDKDPDVLYVYYFFPKRITSLILPGIIKAAARILYETEVEVSSTPSRFHQDCREFVDQPCELYSVHIRSARPHPPPGKPVSSLVIPASLFCKTFPFHFMLDRDMSILQLGHGIRRLMSRRDVQGKPHFDEYFEILTPKISQTFSGIMTMLNMQFLVRVRRWDNSMKKSSRVMDLKGQMIYMVESSSILFLGSPCVDRLEDFTGRGLYLSDIPIHNALRDVVLIGEQARAQDGLKKRLGKLKATLEQAHQALEEEKRKTVDLLCSIFPSEVARQLWQGHAVQAKRFGNVTMLFSDIVGFTAICSQCSPLQVITMLNALYTRFDRQCGELDVYKVETIGDAYCVAGGLHKESDTHAVQIALMALKMMELSHEVVSPHGEPIKMRIGLHSGSVFAGVVGVKMPRYCLFGNNVTLANKFESCSVPRKINVSPTTYRLLKDCPGFVFTPRSREELPPNFPSDIPGICHFLEAYQQGTTSKPWFQKKDVEEANANFLGKASGID
Guanylate cyclase soluble … 2: MYGFVNHALELLVIRNYGPEVWEDIKKEAQLDEEGQFLVRIIYDDSKTYDLVAAASKVLNLNAGEILQMFGKMFFVFCQESGYDTILRVLGSNVREFLQNLDALFDHLATIYPGMRAPSFRCTDADKGKGLILHYYSEREGLQDIVIGIIKTVAQQIHGTEIDMKVIQQRNEECDHTQFLIEEKESKEEDFYEDLDRFEENGTQESRISPYTFCKAFPFHIIFDRDLVVTQCGNAIYRVLPQLQPGNCSLLSVFSLVRPHIDISFHGILSHINTVFVLRSKEGLLDVEKSECEDELTGTEISCLRLKGQMIYLPEADSILFLCSPSVMNLDDLTRRGLYLSDIPLHDATRDLVLLGEQFREEYKLTQELEILTDRLQLTLRALEDEKKKTDTLLYSVLPPSVANELRHKRPVPAKRYDNVTILFSGIVGFNAFCSKHASGEGAMKIVNLLNDLYTRFDTLTDSRKNPFVYKVETVGDKYMTVSGLPEPCIHHARSICHLALDMMEIAGQVQVDGESVQITIGIHTGEVVTGVIGQRMPRYCLFGNTVNLTSRTETTGEKGKINVSEYTYRCLMTPENSDPQFHLEHRGPVSMKGKKEPMQVWFLSRKNTGTEETEQDEN
modifications: mutation in beta subunit
+NO
  Specific activity: 0.11 ± 0.03 µmol/min/mg
Basal
  Specific activity: 0.04 ± 0.03 µmol/min/mg
  basal activity: about 40 nmol/min/mg
